In publication doi:10.1101/2024.12.02.626349 (bioRxiv, 2024):

Target: ^15N-labeled wild-type untagged ubiquitin (UniProt P0CG48 1-76, ^15N-labeled)
Assay: NMR titration

B1: 6xHis-tagged UBR4-UBL (residues 4340-4463) (domain or fragment)
chain: YPEENEVTEFFVTLEKDPQQEDFLQGRMPGNPYSSNEPGIGPLMRDIKNKICQDCDLVALLEDDSGMELLVNNKIISLDLPVAEVYKKVWCTTNEGEPMRIVYRMRGLLGDATEEFIESLDSTT
Q: For B1, which Kd is on record?
A: 124 µM
